{"source": "patent US20010016351", "tested_on": "GFP-CBP fusion protein (green fluorescent protein with C-terminal thrombin-cleavable calmodulin binding peptide tag, expressed from GFP Clone No. 2995-87.6 in BL21(DE3) cells) [GFP: P42212]"}
{"substance": "thrombin", "values": [{"measurement": "cleavage of the fusion protein by thrombin at 6 h", "value": "Fifty percent cleavage was observed at 6 h"}, {"measurement": "cleavage of the fusion protein by thrombin at 24 h", "value": "95 percent cleavage was achieved at 24 h"}]}
